{
  "source": "patent US20230227508A1",
  "about": "(MIT, published 2023)",
  "key": {"[1]": {"target": "T1, σN-NpuN-Mdm2* bait fusion (residues 17-124 of Mdm2) (UniProt Q00987 17-124)", "T1 construct": "range 17-124; also called Mdm2-intein; pTHSS-2132", "T1 sequence (Q00987 other isoform, or with tags, fused parts or gaps limits assumed)": "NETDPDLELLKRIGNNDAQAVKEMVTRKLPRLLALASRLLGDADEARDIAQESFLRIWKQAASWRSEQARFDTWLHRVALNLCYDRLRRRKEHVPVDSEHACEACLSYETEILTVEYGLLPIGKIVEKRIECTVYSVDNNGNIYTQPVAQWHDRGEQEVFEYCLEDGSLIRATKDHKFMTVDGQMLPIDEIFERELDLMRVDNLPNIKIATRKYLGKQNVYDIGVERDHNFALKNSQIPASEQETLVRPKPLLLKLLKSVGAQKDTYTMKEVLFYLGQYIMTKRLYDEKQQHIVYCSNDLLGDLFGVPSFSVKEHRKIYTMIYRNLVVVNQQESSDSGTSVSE", "assay": "split intein σ factor circuit in E. coli, sfGFP read by flow cytometry"}, "[2]": {"target": "T1, σN-NpuN-Mdm2* bait fusion (residues …)", "assay": "cell-based or functional assay"}},
  "data": [
    {"binder": "ACE2*-NpuC-σC peptide fusion (N-terminal residues 19-56 of ACE2) (other, not shown: small tags and cut ends, also called ACE2a1; pAMK-857) STIEEQAKTFLDKFNHEAEDLFYQSSLASWNYNTNITERGGKGGPGGRGGVGGGGGIGGGFIASNCWLDTRPAPDEQLEASAQSRRMAQALDQLPDRQREAIVLQYYQELSNTEAAALMQISVEALESLLSRARRNLRSHLAEAPGADLSGRRKP", "values": [
      {"measurement": "binding result", "setting": "[1]", "result": "no binding"},
      {"measurement": "drop of the fluorescent output of the circuit relative to the PMI/Mdm2* pair", "setting": "[2]", "result": 15, "unit": "fold"}
    ]}
  ]
}
